Experimental data as given in patent publication US20130338077A1 (INDIANA UNIVERSITY RESEARCH AND TECHNOLOGY, published 2013).

Target: T1, recombinant human p65 protein, full-length, with DDK (r-p65:DDK) (human, UniProt Q04206 1-551)
T1 construct: mature; also called full-length r-p65:DDK; p65 subunit of NF-kB; not shown: DDK tag
Assay: kinetic ELISA, plate-bound GILZ-P probed with r-p65:DDK; Scatchard plot and linear regression; plate-bound GILZ-P (synthetic peptide), not r-GILZ

T1 sequence (Q04206 whole entry): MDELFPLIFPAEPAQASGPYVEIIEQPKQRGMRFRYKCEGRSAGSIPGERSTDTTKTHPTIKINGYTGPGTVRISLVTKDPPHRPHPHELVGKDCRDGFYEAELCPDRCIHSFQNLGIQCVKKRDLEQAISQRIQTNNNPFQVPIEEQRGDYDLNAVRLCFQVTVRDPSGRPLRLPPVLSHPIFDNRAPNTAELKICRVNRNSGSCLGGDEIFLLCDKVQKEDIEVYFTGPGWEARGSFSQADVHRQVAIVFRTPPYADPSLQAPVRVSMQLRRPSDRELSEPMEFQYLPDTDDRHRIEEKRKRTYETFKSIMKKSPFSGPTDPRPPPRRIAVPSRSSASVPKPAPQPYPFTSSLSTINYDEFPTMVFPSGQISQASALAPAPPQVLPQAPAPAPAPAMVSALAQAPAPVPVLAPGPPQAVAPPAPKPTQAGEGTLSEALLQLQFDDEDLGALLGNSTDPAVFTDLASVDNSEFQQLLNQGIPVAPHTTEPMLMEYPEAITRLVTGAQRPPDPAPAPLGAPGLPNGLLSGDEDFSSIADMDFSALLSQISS

Kd: 1120 nM
Binder: Ac-CLSPEEPAPESPQVPEAPGGSAV-NH2 (also called GILZ-WT; GILZ-P115-137) [GILZ-peptide (GILZ-P), synthetic peptide from the carboxy terminus of GILZ]
